In test [1] the target is CaV2.2/α2δ-2 calcium channel coexpressed with β2a-SH3 (1–135) and β2a-GK (226–442) (UniProt Q05152).
The target of test [2] is CaV2.2/α2δ-2 calcium channel coexpressed with wild-type β2a (UniProt Q05152).
Test [3] shares this target. The source holds these as a separate data set.
For test [4], the target named is CaV2.2/α2δ-2 calcium channel coexpressed with β2a-ΔvHOOK (UniProt Q05152).

Consider “Gβγ (from UniProt P62873 1-340; P59768 1-71) (complex)”, for which, in test [1], the basal facilitation (P2/P1) of peak IBa at +10 mV in the absence of agonist was 2.61 and the time constant for the removal of tonic inhibition (τdissoc) at +120 mV was found to be 29.1 ms. Moreover, the basal facilitation (P2/P1) ratio at +10 mV without agonist in test [2] was found to be 1.43. For the same substance, in test [3], the dissociation rate of Gβγ at +120 mV (from τdissoc) was 46.9 s⁻¹ and the time constant for rebinding of Gβγ at −100 mV (reinhibition after the prepulse) came to 248 ms. Also, in test [4], the dissociation rate of Gβγ at +120 mV (from τdissoc) worked out at 29.7 s⁻¹ and the time constant for rebinding of Gβγ at −100 mV (reinhibition after the prepulse) was found to be 296 ms.

(Values after publication PMC2686087.)
